T1: recombinant human IL-13 receptor alpha 2 (hIL-13-Rα2) (human, UniProt Q14627 27-343)
T1 construct: Recombinant soluble antigen coated on ELISA plates or used in Biacore; also called rec hIL-13Rα2; rhIL-13Rα2
T1 sequence (looked up): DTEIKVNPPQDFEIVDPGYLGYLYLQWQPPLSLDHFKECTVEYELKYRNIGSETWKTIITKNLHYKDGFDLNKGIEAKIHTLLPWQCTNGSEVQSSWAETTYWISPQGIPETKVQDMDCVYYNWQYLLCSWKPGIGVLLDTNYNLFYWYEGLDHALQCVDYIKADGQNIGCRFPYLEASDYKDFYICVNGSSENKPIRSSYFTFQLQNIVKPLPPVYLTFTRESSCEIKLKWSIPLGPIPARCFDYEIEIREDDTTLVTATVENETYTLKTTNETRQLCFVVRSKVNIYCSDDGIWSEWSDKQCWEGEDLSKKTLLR


What was measured:
[1] = molecular target: T1, recombinant human IL-13 receptor alpha …; assay: competition ELISA on plate (recombinant IL-13-Rα2), competitor biotinylated ch07
[2] = molecular target: T1, recombinant human IL-13 receptor alpha …; assay: direct ELISA on rhIL-13Rα2 (given as ED50)
[3] = molecular target: T1, recombinant human IL-13 receptor alpha …; assay: standard ELISA on hIL-13-Rα2 (given as ED50)
[4] = molecular target: T1, recombinant human IL-13 receptor alpha …; assay: competition ELISA on hIL-13-Rα2, competitor biotinylated ch08
Method: The binding properties of the cysteine mutants to hIL-13-Rα2 were evaluated by a standard ELISA and a competition ELISA. […] This conclusion was confirmed by a competition ELISA with biotinylated ch08.

[5] = molecular target: T1, recombinant human IL-13 receptor alpha …; assay: direct ELISA on coated recombinant hIL-13-Rα2
Method: Humanized hu08 binding to recombinant hIL-13-Rα2 was evaluated by a standard direct ELISA. Recombinant hIL-13-Rα2 was coated onto a 96-well plate. Serially diluted chimeric antibodies or humanized antibodies in combinations of heavy and light chains of versions 1.0 and 1.1 e.g. hu08 v1.0 HC/1.0 LC, hu08 v1.0 HC/v1.1 LC, hu08 v1.1 HC/v1.0 LC, and hu08 v1.1 HC/v1.1 LC, were added to the plate and incubated at room temperature for 1-2 hours. The binding was detected by HRP conjugated goat anti-human Ig Kappa.

[6] = molecular target: T1, recombinant human IL-13 receptor alpha …; assay: competition ELISA on coated recombinant hIL-13-Rα2, competitor biotin-ch08
Method: A competition ELISA was performed to assess whether hu08 1.0 and hu08 v1.1 compete with ch08 for IL-13-Rα2 binding. Recombinant hIL-13-Rα2 was coated onto 96-well plates at 50 ul of […] in PBS overnight at 4° C. Plates were then blocked and washed following standard ELISA protocol. A 3-fold serially diluted ch08, hu08 1.0 and hu08 v1.1, and negative control ch07 (2× final concentration) were mixed with biotinylated ch08 (2×EC₅₀). 50 μl of the antibody and biotin-ch08 mixture were added to the plate and incubated for 1 hour at room temperature. The amount of biotin-ch08 bound was detected by HRP conjugated streptavidin.

Binder	EC50 [3] [nM]	IC50 [4] [nM]	further results
hu07 heavy chain v1.5 paired with chimeric light chain (antibody, V domains shown, hIgG1 constant region; the chimeric light chain is the mu07 VL with human kappa constant region; also called hu07v1.5/kc; hu07 v1.5 paired with chimeric light chain Kc) VH: EVQLVESGGGLVQPGGSLRLSCAASGFSLTKYGVHWVRQAPGKGLEWVGVKWAGGSTDYNSALMSRFTISKDNAKNSLYLQMNSLRAEDTAVYYCARDHRDAMDYWGQGTLVTVSS VL: QVVLTQSPAIMSASPGERVTMTCTASLSVSSTYLHWYHQKPGSSPKLWIYSTSNLASGVPARFSGSGSGTSYSLTISSMEAEDAATYYCHQYHRSPLTFGSGTKLELK	–	–	IC50 [1]: 3.03 nM; EC50 [2]: 0.183 nM
hu07 heavy chain v1.5 / light chain v1.1 (antibody, IgG1, V domains shown, hIgG1 constant region and hIg Kappa constant region; also called hu07v1.5/v1.1) VH: EVQLVESGGGLVQPGGSLRLSCAASGFSLTKYGVHWVRQAPGKGLEWVGVKWAGGSTDYNSALMSRFTISKDNAKNSLYLQMNSLRAEDTAVYYCARDHRDAMDYWGQGTLVTVSS VL: DIQMTQSPSSLSASVGDRVTITCTASLSVSSTYLHWYQQKPGSSPKLLIYSTSNLASGVPSRFSGSGSGTSFTLTISSLQPEDFATYYCHQYHRSPLTFGGGTKVEIK	–	–	IC50 [1]: 46.6 nM; EC50 [2]: 1.21 nM
hu08 with light chain mutation D185A (hu08MAC, unconjugated) (antibody, also called hu08/kD185A) heavy: not shown light: DIQMTQSPSSLSASVGDRVTITCKASQDVGTAVAWYQQKPGKAPKLLIYSASYRSTGVPSRFSGSGSGTDFTLTISSLQPEDFATYYCQHHYSAPWTFGGGTKVEIKRTVAAPSVFIFPPSDEQLKSGTASVVCLLNNFYPREAKVQWKVDNALQSGNSQESVTEQDSKDSTYSLSSTLTLSKAAYEKHKVYACEVTHQGLSSPVTKSFNRGEC	0.108	2.36	–
hu08v1.0/1.0-A111C (antibody, also called hu08/kA111C; kA111C) heavy: not shown light: DIQMTQSPSSLSASVGDRVTITCKASQDVGTAVAWYQQKPGKAPKLLIYSASYRSTGVPSRFSGSGSGTDFTLTISSLQPEDFATYYCQHHYSAPWTFGGGTKVEIKRTVACPSVFIFPPSDEQLKSGTASVVCLLNNFYPREAKVQWKVDNALQSGNSQESVTEQDSKDSTYSLSSTLTLSKADYEKHKVYACEVTHQGLSSPVTKSFNRGEC	0.22	4.07	–
hu08v1.0/1.0-K188C (antibody, human IgG1, kappa, also called hu08/kK188C; kK188C) heavy: not shown light: DIQMTQSPSSLSASVGDRVTITCKASQDVGTAVAWYQQKPGKAPKLLIYSASYRSTGVPSRFSGSGSGTDFTLTISSLQPEDFATYYCQHHYSAPWTFGGGTKVEIKRTVAAPSVFIFPPSDEQLKSGTASVVCLLNNFYPREAKVQWKVDNALQSGNSQESVTEQDSKDSTYSLSSTLTLSKADYECHKVYACEVTHQGLSSPVTKSFNRGEC	0.18	2.73	–
hu08v1.0/1.0-V422C/L443C (antibody, also called hu08/L443C/V422C; L443C/V422C) heavy: not shown light: DIQMTQSPSSLSASVGDRVTITCKASQDVGTAVAWYQQKPGKAPKLLIYSASYRSTGVPSRFSGSGSGTDFTLTISSLQPEDFATYYCQHHYSAPWTFGGGTKVEIKRTVAAPSVFIFPPSDEQLKSGTASVVCLLNNFYPREAKVQWKVDNALQSGNSQESVTEQDSKDSTYSLSSTLTLSKADYEKHKVYACEVTHQGLSSPVTKSFNRGEC	0.09	2.17	–
hu08v1.0/1.0-Q347C/A111C (antibody, also called hu08/Q347C/kA111C; Q347C/kA111C) heavy: not shown light: DIQMTQSPSSLSASVGDRVTITCKASQDVGTAVAWYQQKPGKAPKLLIYSASYRSTGVPSRFSGSGSGTDFTLTISSLQPEDFATYYCQHHYSAPWTFGGGTKVEIKRTVACPSVFIFPPSDEQLKSGTASVVCLLNNFYPREAKVQWKVDNALQSGNSQESVTEQDSKDSTYSLSSTLTLSKADYEKHKVYACEVTHQGLSSPVTKSFNRGEC	0.1	2.44	–
hu08v1.0/1.0-K183C (antibody, human IgG1, kappa, also called hu08/kK183C; kK183C) heavy: not shown light: DIQMTQSPSSLSASVGDRVTITCKASQDVGTAVAWYQQKPGKAPKLLIYSASYRSTGVPSRFSGSGSGTDFTLTISSLQPEDFATYYCQHHYSAPWTFGGGTKVEIKRTVAAPSVFIFPPSDEQLKSGTASVVCLLNNFYPREAKVQWKVDNALQSGNSQESVTEQDSKDSTYSLSSTLTLSCADYEKHKVYACEVTHQGLSSPVTKSFNRGEC	0.11	2.47	–
hu08v1.0/1.0-Q347C/K183C (antibody, human IgG1, kappa, also called hu08/Q347C/kK183C; Q347C/kK183C) heavy: not shown light: DIQMTQSPSSLSASVGDRVTITCKASQDVGTAVAWYQQKPGKAPKLLIYSASYRSTGVPSRFSGSGSGTDFTLTISSLQPEDFATYYCQHHYSAPWTFGGGTKVEIKRTVAAPSVFIFPPSDEQLKSGTASVVCLLNNFYPREAKVQWKVDNALQSGNSQESVTEQDSKDSTYSLSSTLTLSCADYEKHKVYACEVTHQGLSSPVTKSFNRGEC	0.13	2.41	–
hu08v1.0/1.0-L443C (antibody, also called hu08/L443C) heavy: not shown light: DIQMTQSPSSLSASVGDRVTITCKASQDVGTAVAWYQQKPGKAPKLLIYSASYRSTGVPSRFSGSGSGTDFTLTISSLQPEDFATYYCQHHYSAPWTFGGGTKVEIKRTVAAPSVFIFPPSDEQLKSGTASVVCLLNNFYPREAKVQWKVDNALQSGNSQESVTEQDSKDSTYSLSSTLTLSKADYEKHKVYACEVTHQGLSSPVTKSFNRGEC	0.1	2.25	–
hu08v1.0/1.0-Q347C (antibody, also called hu08/Q347C) heavy: not shown light: DIQMTQSPSSLSASVGDRVTITCKASQDVGTAVAWYQQKPGKAPKLLIYSASYRSTGVPSRFSGSGSGTDFTLTISSLQPEDFATYYCQHHYSAPWTFGGGTKVEIKRTVAAPSVFIFPPSDEQLKSGTASVVCLLNNFYPREAKVQWKVDNALQSGNSQESVTEQDSKDSTYSLSSTLTLSKADYEKHKVYACEVTHQGLSSPVTKSFNRGEC	0.1	2.07	–
hu08v1.0/1.0-L443C/K183C (antibody, also called hu08/L443C/kK183C; L443C/kK183C) heavy: not shown light: DIQMTQSPSSLSASVGDRVTITCKASQDVGTAVAWYQQKPGKAPKLLIYSASYRSTGVPSRFSGSGSGTDFTLTISSLQPEDFATYYCQHHYSAPWTFGGGTKVEIKRTVAAPSVFIFPPSDEQLKSGTASVVCLLNNFYPREAKVQWKVDNALQSGNSQESVTEQDSKDSTYSLSSTLTLSCADYEKHKVYACEVTHQGLSSPVTKSFNRGEC	0.11	2.45	–
hu08v1.0/1.0-L443C/A111C (antibody, also called hu08/L443C/kA111C; L443C/kA111C) heavy: not shown light: DIQMTQSPSSLSASVGDRVTITCKASQDVGTAVAWYQQKPGKAPKLLIYSASYRSTGVPSRFSGSGSGTDFTLTISSLQPEDFATYYCQHHYSAPWTFGGGTKVEIKRTVACPSVFIFPPSDEQLKSGTASVVCLLNNFYPREAKVQWKVDNALQSGNSQESVTEQDSKDSTYSLSSTLTLSKADYEKHKVYACEVTHQGLSSPVTKSFNRGEC	0.12	2.32	–
hu08v1.0/1.0-K392C/L443C (antibody, also called hu08/L443C/K392C; L443C/K392C) heavy: not shown light: DIQMTQSPSSLSASVGDRVTITCKASQDVGTAVAWYQQKPGKAPKLLIYSASYRSTGVPSRFSGSGSGTDFTLTISSLQPEDFATYYCQHHYSAPWTFGGGTKVEIKRTVAAPSVFIFPPSDEQLKSGTASVVCLLNNFYPREAKVQWKVDNALQSGNSQESVTEQDSKDSTYSLSSTLTLSKADYEKHKVYACEVTHQGLSSPVTKSFNRGEC	0.09	2.1	–
humanized antibody hu08 v1.0 HC/v1.1 LC (antibody, IgG1, V domains shown, hIgG1 constant region and hIgKappa constant region; also called hu08 v1.0/1.1) VH: EVQLVESGGGLVQPGGSLRLSCAASGFTFSRNGMSWVRQAPGKGLEWVATVSSGGSYIYYADSVKGRFTISRDNAKNSLYLQMNSLRAEDTAVYYCARQGTTALATRFFDVWGQGTLVTVSS VL: DIQMTQSPSSLSASVGDRVTITCKASQDVGTAVAWYQQIPGKAPKLLIYSASYRSTGVPDRFSGSGSGTDFSFIISSLQPEDFATYYCQHHYSAPWTFGGGTKVEIK	–	–	EC50 [5]: 0.143 nM; IC50 [6]: 2.14 nM
humanized antibody hu08 v1.1 HC/v1.0 LC (antibody, IgG1, V domains shown, hIgG1 constant region and hIgKappa constant region; also called hu08 v1.1/1.0) VH: EVQLVESGGGLVQPGGSLRLSCAASGFTFSRNGMSWVRQTPDKRLEWVATVSSGGSYIYYADSVKGRFTISRDNAKNSLYLQMSSLRAEDTAVYYCARQGTTALATRFFDVWGQGTLVTVSS VL: DIQMTQSPSSLSASVGDRVTITCKASQDVGTAVAWYQQKPGKAPKLLIYSASYRSTGVPSRFSGSGSGTDFTLTISSLQPEDFATYYCQHHYSAPWTFGGGTKVEIK	–	–	EC50 [5]: 0.163 nM; IC50 [6]: 2.56 nM
